From the supplement of paper PMC10126150
± gives the standard deviation of the averaged measurements.

Tested on: ATP
Test: switch fluorescence ratio, 500 uM ATP over buffer (Cy3 cluster intensity, sum of 5 cycles each) (fold (ratio)); higher = stronger signal-on switching upon ATP binding; sequences stand for … in TCGTCGGCAGCGTCAGATGTGTATAAGAGACAGTTTTTTTTTTTTTTTTTTTTTTTTT…TC
Settings: aptamer strand: ATP DNA aptamer (quencher-CACCTGGGGGAGTATTGCGGAGGAAGG + anchor), 100 nM annealed; ATP concentration: 500 uM
Outline: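 After annealing to 100 nM quencher-labelled ATP aptamer, Cy3-labelled switching-strand clusters on a modified Illumina MiSeq flow-cell were imaged in selection buffer. A second image followed after 15 min with 500 uM ATP at 22 °C, and five such buffer/ATP cycles were done, each separated by NaOH stripping and re-annealing. The fluorescence ratio, averaged per switch-domain sequence, is summed target-cycle over summed buffer-cycle Cy3 intensity per cluster, with clusters outside 100-1000 RFU excluded.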
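Further: ATP exposure 15 min at 22 °C before imaging.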

| Sequence | switch fluorescence ratio |
| --- | --- |
| AGCGATGGCC | 1.05 ± 0.028 |
| AGCGCAAGAT | 1.791 ± 0.013 |
| AGCGCGGTAA | 1 ± 0.013 |
| AGCGCGTTGT | 1.02 ± 0.044 |
| AGCGGAGAGT | 1 ± 0.029 |
| AGCGGATGCA | 0.985 ± 0.02 |
| AGCGGCATCT | 0.983 ± 0.0093 |
| AGCGGGGGGA | 1.01 ± 0.025 |
| AGCGGGGTTT | 0.987 ± 0.011 |
| AGCGGGTGCC | 1.02 ± 0.039 |
| AGCGGGTTGG | 1.029 ± 0.0082 |
| AGCGGTCCGG | 1 ± 0.058 |
| AGCGTACTCG | 1.11 ± 0.047 |
| AGCGTAGGGG | 0.94 ± 0.033 |
| AGCGTATGGG | 0.983 ± 0.035 |
| AGCGTATTGG | 0.998 ± 0.035 |
| AGCGTCGCAG | 0.9715 ± 0.0087 |
| AGCGTGACTG | 0.987 ± 0.019 |
| AGCGTGAGGG | 1.02 ± 0.018 |
| AGCGTGGTGG | 0.958 ± 0.033 |
| AGCGTGTAGG | 1 ± 0.15 |
| AGCGTGTTTA | 1.04 ± 0.036 |
| AGCGTTCAGC | 0.9849 ± 0.0026 |

| Sequence | switch fluorescence ratio |
| --- | --- |
| AGCTAGTTAC | 1.38 ± 0.014 |
| AGCTATCCCG | 0.991 ± 0.046 |
| AGCTATGTGG | 0.9812 ± 0.0064 |
| AGCTCGCCAC | 1.05 ± 0.046 |
| AGCTCGGGGG | 1 ± 0.034 |
| AGCTGACATT | 0.999 ± 0.034 |
| AGCTGATTC | 1.031 ± 0.0099 |
| AGCTGGGGGT | 1.02 ± 0.06 |
| AGCTGGGGTG | 1.03 ± 0.06 |
| AGCTGTGTGG | 1.01 ± 0.012 |
| AGCTGTTTAG | 1 ± 0.014 |
| AGCTTAAGAC | 1.36 ± 0.041 |
| AGCTTGGGCA | 1.02 ± 0.0095 |
| AGCTTGTCAA | 0.9774 ± 0.0067 |
| AGCTTTGCTA | 0.9582 ± 0.0072 |
| AGCTTTGGTA | 1.016 ± 0.0026 |
| AGGAAACTCG | 1.03 ± 0.052 |
| AGGAAAGTTT | 0.955 ± 0.028 |
| AGGAAATGGG | 1 ± 0.036 |
| AGGAACATAG | 1.15 ± 0.2 |
| AGGAAGCAG | 1.003 ± 0.0027 |
| AGGAAGGG | 1.0069 ± 0.00083 |
| AGGAAGGGGC | 0.96 ± 0.018 |

| Sequence | switch fluorescence ratio |
| --- | --- |
| AGGAATAAAA | 0.961 ± 0.1 |
| AGGAATATCA | 0.998 ± 0.041 |
| AGGACAGTCG | 0.929 ± 0.045 |
| AGGACCGGGG | 1.024 ± 0.0095 |
| AGGACCGGGT | 1.03 ± 0.021 |
| AGGACCGTTA | 1 ± 0.031 |
| AGGACCGTTT | 0.991 ± 0.016 |
| AGGACGACGG | 0.964 ± 0.021 |
| AGGACGTAGC | 1.09 ± 0.018 |
| AGGACTAAGG | 0.98 ± 0.026 |
| AGGACTCCGT | 0.98 ± 0.095 |
| AGGACTGGCA | 0.991 ± 0.038 |
| AGGACTGGTG | 1.01 ± 0.044 |
| AGGACTTAGG | 1.06 ± 0.056 |
| AGGACTTTAA | 1.0405 ± 0.0001 |
| AGGAGACATA | 1 ± 0.021 |
| AGGAGAGGAG | 1.02 ± 0.038 |
| AGGAGCGCGT | 1.02 ± 0.051 |
| AGGAGCGGGG | 1 ± 0.1 |
| AGGAGCGGTG | 0.985 ± 0.047 |
| AGGAGCTCGG | 0.994 ± 0.013 |
| AGGAGGAAAG | 0.987 ± 0.028 |
| AGGAGGAGTT | 1.01 ± 0.053 |

| Sequence | switch fluorescence ratio |
| --- | --- |
| AGGAGGCTAG | 1.02 ± 0.045 |
| AGGAGGGGA | 1.03 ± 0.02 |
| AGGAGGGGCG | 0.983 ± 0.0099 |
| AGGAGGTCGG | 0.991 ± 0.01 |
| AGGAGGTTGT | 0.976 ± 0.017 |
| AGGAGTGTTC | 1.01 ± 0.084 |
| AGGATACTGG | 0.975 ± 0.031 |
| AGGATCGGAT | 1.04 ± 0.003 |
| AGGATCGGTC | 1.02 ± 0.021 |
| AGGATCTCGA | 0.996 ± 0.033 |
| AGGATGGGAG | 0.999 ± 0.023 |
| AGGATGGGGA | 0.99 ± 0.023 |
| AGGATGGTAC | 1.03 ± 0.015 |
| AGGATGTAGG | 1.02 ± 0.035 |
| AGGATGTTTT | 0.995 ± 0.039 |
| AGGATTAAAT | 0.987 ± 0.026 |
| AGGATTGTTG | 0.994 ± 0.07 |
| AGGATTTATG | 0.962 ± 0.021 |
| AGGATTTT | 0.955 ± 0.066 |
| AGGATTTTTC | 1.03 ± 0.044 |
| AGGATTTTTT | 1.003 ± 0.0094 |
| AGGCAACTAG | 1.05 ± 0.027 |
| AGGCACCATC | 1.06 ± 0.045 |

| Sequence | switch fluorescence ratio |
| --- | --- |
| AGGCACCGGT | 1.04 ± 0.0041 |
| AGGCACGGGC | 1.0064 ± 0.001 |
| AGGCACTACA | 1.017 ± 0.0064 |
| AGGCAGATAG | 1.04 ± 0.025 |
| AGGCAGCTAT | 1.05 ± 0.038 |
| AGGCAGGAGG | 1 ± 0.015 |
| AGGCAGGGGG | 1.03 ± 0.021 |
| AGGCATCTGG | 0.994 ± 0.011 |
| AGGCCACTCG | 0.978 ± 0.0036 |
| AGGCCAGCTG | 0.993 ± 0.062 |
| AGGCCAGGCG | 1.02 ± 0.051 |
| AGGCCAGTTG | 1.02 ± 0.012 |
| AGGCCCGTTA | 0.9957 ± 0.0027 |
| AGGCCGGCAA | 1.02 ± 0.045 |
| AGGCCGGTGA | 1.01 ± 0.018 |
| AGGCCTTCAG | 0.9915 ± 0.0083 |
| AGGCCTTGGC | 1.018 ± 0.0039 |
| AGGCCTTGTG | 0.985 ± 0.025 |
| AGGCCTTTTG | 0.956 ± 0.033 |
| AGGCGCGTGG | 1.03 ± 0.013 |
| AGGCGCTGGG | 0.999 ± 0.028 |
| AGGCGGATCG | 0.99 ± 0.085 |
| AGGCGGCGAG | 1 ± 0.024 |

| Sequence | switch fluorescence ratio |
| --- | --- |
| AGGCGGGTGC | 1.04 ± 0.095 |
| AGGCGGGTTG | 0.993 ± 0.026 |
| AGGCGGTGGG | 1.044 ± 0.0059 |
| AGGCGTGGGG | 1.03 ± 0.017 |
| AGGCTAGGGC | 0.993 ± 0.022 |
| AGGCTCGTAC | 1.08 ± 0.09 |
| AGGCTGGGGA | 1.01 ± 0.057 |
| AGGCTGTCAC | 0.996 ± 0.013 |
| AGGCTTACCC | 1.01 ± 0.018 |
| AGGCTTGGGT | 0.982 ± 0.024 |
| AGGCTTTCAG | 0.9828 ± 0.0011 |
| AGGCTTTTTC | 0.999 ± 0.024 |
| AGGCTTTTTG | 0.969 ± 0.015 |
| AGGGAAAAAA | 1.01 ± 0.043 |
| AGGGAAAATG | 0.967 ± 0.033 |
| AGGGAAAATT | 0.995 ± 0.011 |
| AGGGAAAGCT | 1.12 ± 0.2 |
| AGGGAAGATA | 0.998 ± 0.014 |
| AGGGAAGCGG | 0.982 ± 0.047 |
| AGGGAAGGGA | 1 ± 0.013 |
| AGGGAAGTTT | 1.03 ± 0.084 |
| AGGGAATGAA | 1.03 ± 0.085 |
| AGGGAATTAC | 1.022 ± 0.0036 |

| Sequence | switch fluorescence ratio |
| --- | --- |
| AGGGACACTA | 1.07 ± 0.028 |
| AGGGACAGGG | 1.02 ± 0.05 |
| AGGGACATAT | 1.018 ± 0.006 |
| AGGGACGCTT | 1.14 ± 0.12 |
| AGGGACTGGG | 0.993 ± 0.038 |
| AGGGAGACGG | 1 ± 0.033 |
| AGGGAGCCGG | 0.965 ± 0.03 |
| AGGGAGGAAA | 1 ± 0.036 |
| AGGGAGGCTC | 1 ± 0.057 |
| AGGGAGGGAG | 0.97 ± 0.035 |
| AGGGAGGTGT | 0.997 ± 0.036 |
| AGGGAGTTGG | 0.995 ± 0.032 |
| AGGGATATAT | 0.98 ± 0.011 |
| AGGGATATTT | 1.01 ± 0.033 |
| AGGGATTCGC | 0.997 ± 0.011 |
| AGGGCATAAG | 0.982 ± 0.062 |
| AGGGCATCGG | 1.021 ± 0.0044 |
| AGGGCATTAT | 1.04 ± 0.047 |
| AGGGCCCTCG | 0.9898 ± 0.0036 |
